Source: the supplement of paper PMC11246515
± gives the standard deviation of the averaged measurements.

Assay: total protein half-life in vivo (active degradation + dilution); higher = more stable protein
[1] = E. coli NCM3722 delta-smpB, growth: N-lim chemostat, doubling time 6 h
[2] = wild type E. coli NCM3722, growth: C-lim chemostat, doubling time 3 h
[3] = wild type E. coli NCM3722, growth: C-lim chemostat, doubling time 6 h
[4] = wild type E. coli NCM3722, growth: C-lim chemostat, doubling time 12 h
[5] = wild type E. coli NCM3722, growth: N-lim chemostat, doubling time 6 h
[6] = wild type E. coli NCM3722, growth: P-lim chemostat, doubling time 6 h
[7] = wild type E. coli NCM3722, growth: P-lim chemostat, doubling time 12 h
[8] = E. coli NCM3722 delta-clpP delta-lon delta-hslV, growth: N-lim chemostat, doubling time 6 h
[9] = E. coli NCM3722 delta-clpP, growth: N-lim chemostat, doubling time 6 h
[10] = E. coli NCM3722 delta-hslV, growth: N-lim chemostat, doubling time 6 h
[11] = E. coli NCM3722 delta-lon, growth: N-lim chemostat, doubling time 6 h
[12] = wild type E. coli NCM3722, growth: N-lim chemostat, doubling time 12 h

Row | Sequence | total protein half-life in vivo [1] | total protein half-life in vivo [2] | total protein half-life in vivo [3] | total protein half-life in vivo [4] | total protein half-life in vivo [5] | total protein half-life in vivo [6] | total protein half-life in vivo [7] | total protein half-life in vivo [8] | total protein half-life in vivo [9] | total protein half-life in vivo [10] | total protein half-life in vivo [11] | total protein half-life in vivo [12]
1 | MKLRDSLAENKSIRLQAEAETWQEAVKIGVDLLVAADVVEPRYYQAILDGVEQFGPYFVIAPGLAMPHGRPEEGVKKTGFSLVTLKKPLEFNHDDNDPVDILITMAAVDANTHQEVGIMQIVNLFEDEENFDRLRACRTEQEVLDLIDRTNAAA | 3.07 h | 3.32 ± 0.71 h | 3.97 ± 0.22 h | 7.31 h | 3.02 h | 4.94 ± 0.59 h | 7.637 ± 0.049 h |  |  |  |  | 
2 | MKLSRISAINWNKISDDKDLEVWNRLTSNFWLPEKVPLSNDIPAWQTLTVVEQQLTMRVFTGLTLLDTLQNVIGAPSLMPDALTPHEEAVLSNISFMEAVHARSYSSIFSTLCQTKDVDAAYAWSEENAPLQRKAQIIQQHYRGDDPLKKKIASVFLESFLFYSGFWLPMYFSSRGKLTNTADLIRLIIRDEAVHGYYIGYKYQKNMEKISLGQREELKSFAFDLLLELYDNELQYTDELYAETPWADDVKAFLCYNANKALMNLGYEPLFPAEMAEVNPAILAALSPNADENHDFFSGSGSSYVMGKAVETEDEDWNF | 2.03 h | 2.18 ± 0.23 h | 3.25 ± 0.41 h | 4.27 h | 1.85 h |  | 6.6 h | 3.43 ± 1.1 h | 3.14 ± 0.99 h |  |  | 
3 | MKLTDADNAADGIFFPALEQNMMGAVLINENDEVMFFNPAAEKLWGYKREEVIGNNIDMLIPRDLRPAHPEYIRHNREGGKARVEGMSRELQLEKKDGSKIWTRFALSKVSAEGKVYYLALVRDASVEMAQKEQTRQLIIAVDHLDRPVIVLDPERHIVQCNRAFTEMFGYCISEASGMQPDTLLNIPEFPADNRIRLQQLLWKTARDQDEFLLLTRTGEKIWIKASISPVYDVLAHLQNLVMTFSDITEERQIRQLEGNILAAMCSSPPFHEMGEIICRNIESVLNESHVSLFALRNGMPIHWASSSHGAEIQNAQSWSATIRQRDGAPAGILQIKTSSGAETSAFIERVADISQHMAALALEQEKSRQHIEQLIQFDPMTGLPNRNNLHNYLDDLVDKAVSPVVYLIGVDHIQDVIDSLGYAWADQALLEVVNRFREKLKPDQYLCRIEGTQFVLVSLENDVSNITQIADELRNVVSKPIMIDDKPFPLTLSIGISYDLGKNRDYLLSTAHNAMDYIRKNGGNGWQFFSPAMNEMVKERLVLGAALKEAISNNQLKLVYQPQIFAETGELYGIEALARWHDPLHGHVPPSRFIPLAEEIGEIENIGRWVIAEACRQLAEWRSQNIHIPALSVNLSALHFRSNQLPNQVSDAMHAWGIDGHQLTVEITESMMMEHDTEIFKRIQILRDMGVGLSVDDFGTGFSGLSRLVSLPVTEIKIDKSFVDRCLTEKRILALLEAITSIGQSLNLTVVAEGVETKEQFEMLRKIHCRVIQGYFFSRPLPAEEIPGWMSSVLPLKI | 3.55 ± 0.9 h | 1.63 ± 0.42 h | 4.27 ± 0.69 h | 6.85 ± 0.2 h | 4.01 ± 0.26 h | 2.56 ± 0.83 h | 4.93 ± 0.014 h | 5.66 ± 0.45 h | 3.42 ± 0.28 h | 4.21 ± 0.49 h | 3.8 ± 0.26 h | 7.043 ± 0.059 h
4 | MKLTIIRLEKFSDQDRIDLQKIWPEYSPSSLQVDDNHRIYAARFNERLLAAVRVTLSGTEGALDSLRVREVTRRRGVGQYLLEEVLRNNPGVSCWWMADAGVEDRGVMTAFMQALGFTAQQGGWEKC | 3.46 ± 0.21 h |  | 6.2 ± 1.2 h | 11.91 ± 0.065 h | 3.31 h | 5.99 ± 0.11 h | 12.9 ± 2.6 h | 4.23 ± 0.29 h | 3.9 ± 0.53 h | 5.19 h |  | 6.11 ± 1.4 h
5 | MKLTLKNLSMAIMMSTIVMGSSAMAADSNEKIVIAHRGASGYLPEHTLPAKAMAYAQGADYLEQDLVMTKDDNLVVLHDHYLDRVTDVADRFPDRARKDGRYYAIDFTLDEIKSLKFTEGFDIENGKKVQTYPGRFPMGKSDFRVHTFEEEIEFVQGLNHSTGKNIGIYPEIKAPWFHHQEGKDIAAKTLEVLKKYGYTGKDDKVYLQCFDADELKRIKNELEPKMGMELNLVQLIAYTDWNETQQKQPDGSWVNYNYDWMFKPGAMKQVAEYADGIGPDYHMLIEETSQPGNIKLTGMVQDAQQNKLVVHPYTVRSDKLPEYTPDVNQLYDALYNKAGVNGLFTDFPDKAVKFLNKE | 4.739 ± 0.036 h | 3.12 ± 0.32 h | 6.48 ± 0.5 h | 11.4 ± 0.14 h | 5.53 ± 0.091 h | 5.23 ± 0.11 h | 11.7 ± 0.17 h | 5.71 ± 0.74 h | 6.03 ± 0.55 h | 5.36 ± 0.34 h | 7.08 ± 0.86 h | 10.9 ± 1.6 h
6 | MKLTTHHLRTGAALLLAGILLAGCDQSSSDAKHIKVGVINGAEQDVAEVAKKVAKEKYGLDVELVGFSGSLLPNDATNHGELDANVFQHRPFLEQDNQAHGYKLVAVGNTFVFPMAGYSKKIKTVAQIKEGATVAIPNDPTNLGRALLLLQKEKLITLKEGKGLLPTALDITDNPRHLQIMELEGAQLPRVLDDPKVDVAIISTTYIQQTGLSPVHDSVFIEDKNSPYVNILVAREDNKNAENVKEFLQSYQSPEVAKAAETIFNGGAVPGW | 6.67 ± 0.91 h | 2.86 ± 0.047 h | 5.49 ± 0.059 h | 10.7 ± 1.3 h | 5.44 ± 0.46 h | 5.38 ± 0.23 h | 10.6 ± 0.015 h | 5.58 ± 0.19 h | 6.82 ± 1.4 h |  | 6.47 ± 0.86 h | 12.6 ± 2.8 h
7 | MKLVGSYTSPFVRKLSILLLEKGITFEFINELPYNADNGVAQFNPLGKVPVLVTEEGECWFDSPIIAEYIELMNVAPAMLPRDPLESLRVRKIEALADGIMDAGLVSVREQARPAAQQSEDELLRQREKINRSLDVLEGYLVDGTLKTDTVNLATIAIACAVGYLNFRRVAPGWCVDRPHLVKLVENLFSRESFARTEPPKA [P0ACA1] | 4.22 ± 0.18 h | 3.22 ± 0.13 h | 5.52 ± 0.17 h | 10.7 ± 0.87 h | 4.16 ± 0.18 h | 5.51 ± 0.23 h | 12 ± 1 h | 5.35 ± 1.8 h | 3.78 ± 0.28 h | 4.118 ± 0.04 h | 4.31 ± 0.48 h | 6.719 ± 0.0095 h
8 | MKMIEVVAAIIERDGKILLAQRPAQSDQAGLWEFAGGKVEPDESQRQALVRELREELGIEATVGEYVASHQREVSGRIIHLHAWHVPDFHGTLQAHEHQALVWCSPEEALQYPLAPADIPLLEAFMALRAARPAD | 4.07 h | 3.25 h | 4.61 ± 0.59 h | 8.63 h | 3.82 h | 4.59 h | 8.52 ± 0.99 h | 4.73 h | 4.63 h |  | 5.61 h | 6.31 ± 0.54 h
